According to the supplement of paper PMC9170038:

Columns and labels:
MS2 coat protein [1] = test: apparent KD of MS2 coat protein, switch ON state; designed switch direction (-1 OFF switch, 1 ON switch): 1; higher = weaker reporter binding; details: FMN input: 0 or 200 uM; Eterna round: R93 (includes R88 designs)
Method in brief: (§1)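 Apparent KD per design is the median of normalised cluster binding-curve fits. Designed RNA switches transcribed on-chip from Illumina sequencing clusters were titrated with SNAP-549-labelled MS2 coat protein in twofold steps from 0.7 or 1.5 nM to 3 µM, with 0.8–1.5 h down to 10–20 min per step. Buffer: 100 mM Tris-HCl pH 7.5, 80 mM KCl, 4 mM MgCl2, without or with constant ligand.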

MS2 coat protein [2] = test: apparent KD of MS2 coat protein, switch OFF state (with FMN for OFF switches, without FMN for ON switches); designed switch direction (-1 OFF switch, 1 ON switch): 1; higher = weaker reporter binding; details: FMN input: 0 or 200 uM; Eterna round: R93 (includes R88 designs)
Method in brief: as §1

Row | Sequence | apparent KD of MS2 coat protein (MS2 coat protein [1]) [nM] | apparent KD of MS2 coat protein (MS2 coat protein [2]) [nM]
1 | AAAAAAUAAAAAAAGGAUAUAAUCGAUGGAACAUGAGGAUCACCCAUGUGACAUCGAAAAAUAAAAAAGAAGGAAAAAUAAAAAA [SS2: MS2 24] | 17.6 | 11.2
2 | AAAAACAUGGUGCAGGAUAUAUUAAUAGUCACAUGAGGAUCACCCAUGUUCAUAUAUAUGAACGAGUAGAAGGGCGAUGAAAAAA [Mat - Same state - Malcolm Mod - D110] | 181 | 541
3 | AAAACACAUGAGGAUCACCCAUGUAAAAACAUGAGAGGAUAUGCAUGGAAAACAUGCUAUGCAGAAGGCUCAUGUG [SS1 - 3] | 23.2 | 34.6
4 | AAAACACAUGAGGAUCACCCAUGUAAAAACAUGGGAGGAUAUGCAUGAAAAACAUGCUAUGCAGAAGGCUCAUGUG [SS1 - 2] | 29 | 99.1
5 | AAAACACAUGAGGAUCACCCAUGUAGAAAUACUGGAGGAUAUGCUAAAACGAAAGACAAUGUAGAAGGCCGAAAAG [saturn 11] | 71.6 | 208
6 | AAAAUACAUGAGGAUCACCCAUGUGAAAAUAUGGGAGGAUAUACCGAAAAAAAAAAAACGGUAGAAGGCCCAAAAA [SS! 1 MT 7] | 18.7 | 43.5
7 | AAAAUACAUGAGGAUCACCCAUGUGAGAAAAACGCAGGAUAUGCCCGAAAAAAAAGGCGGGCAGAAGGGUGAAAAA [SameState1-II] | 35.5 | 90.4
8 | AAACCACAUGAGGAUCACCCAUGUAAAAUAAUGGGAGGAUAUACUAGAAGAAACAAAAUAGUAGAAGGCUCAAAAA [75%, Ex sub1, 34] | 28.2 | 97.3
9 | AAACCACAUGAGGAUCACCCAUGUAGAAAUAUGGGAGGAUAUACAAAGACGAAAGUCAAAGUAGAAGGCCUAAAAG [77%, Mat - Mod of Eli, 5] | 31.4 | 97.5
10 | AAACUGGAGGACAAGGAUAUGUGCUCUACGACAUGAGGAUCACCCAUGUGAGACGUAGUAGUGAAACAGAAGGUGUCCUAUUGUU [Qulece] | 11.6 | 27.4
11 | AAAGAAAAACUAGAGGAUAUCUAGAUGAUAACAUGAGGAUCACCCAUGUGAAGAAAGGAAUAUAGGGAGAAGGCUAGAAGAAAAA [JL Nando mod 20] | 21.8 | 28.6
12 | AAAGACGUGGCGUAGGAUAUACUAAUAUUCACAUGAGGAUCACCCAUGUUCAUAUAUAUGAACGAGUAGAAGGACGACGAAAAAA [SameState2 Malc#1] | 59.3 | 120
13 | AAAUAAAGGACUGAGGAUAUACCACAUGAAACAUGAGGAUCACCCAUGUUAAAAAACAAAGGGUGGUAGAAGGCAGUCCACAAAC [Same State 2.5f ( so lets mod hyphema)] | 9.26 | 12.1
14 | AAAUAAAUGACUGAGGAUAUAUCGAUGUGUACAUGAGGAUCACCCAUGUGUGAAUAAAAAGGGUGGUAGAAGGUAGUCAACAAAC [Mod 17 of Pariah 4 by Hyphema in Round 1] | 76.9 | 66.7
15 | AAAUAACAUGAGGAUCACCCAUGUCAAAUAAAUCGAGGAUAUGGGCCCGGGUUCCGGGAGCCAGAAGGCGAAAAGA [Teledimaqu] | 16.9 | 41.6
16 | AAAUAACAUGAGGAUCACCCAUGUUACGACUUUACAGGAUAUGUGGGUGAAAAUAGCAUGACAGAAGGGUACAGUA [SameState1 Malc#36] | 205 | 112
17 | AAAUAACAUGAGGAUCACCCAUGUUGCAACGAUACAGGAUAUGUGGGUGAAAAUAGCAUGACAGAAGGGUAAUGUA [SameState1 Malc#31] | 401 | 35
18 | AACAAUCUAUCUGAGGAUAUCAUAAAAAAAACAUGAGGAUCACCCAUGUGCAGGAAAACUGCAUAUGAGAAGGCAGAUAGAUUGA [SS2: 1102] | 8.73 | 10.6
19 | AACAAUCUAUCUGAGGAUAUCAUGAAAAAGACAUGAGGAUCACCCAUGUACCAGGAAACUGGUUAUGAGAAGGCAGAUAGAUUGA [SS2: 1116] | 9.32 | 14.4
20 | AACACGCGGGCGCAGGAUAUGUCGCUGGUGACAUGAGGAUCACCCAUGUAUACCAUUGCGGUUGAGCAGAAGGGUGAGAUGCGUG [Beisesanxe] | 15.9 | 59.5
21 | AACAUACAUGAGGAUCACCCAUGUUAGGUGGGACUAGGAUAUCAAUCGAAAGUGUUAUAAUGAGAAGGAGUAUAAA [JR_SS001_Sub015] | 127 | 209
22 | AAGAAACAUGAGGAUCACCCAUGUAAGAUAUACACAGGAUAUGCGAAAAGAAACAAAGAAGCAGAAGGGUGGAAAA [75%, Ex sub1, 10] | 14.9 | 33.4

Row | Sequence | apparent KD of MS2 coat protein (MS2 coat protein [1]) [nM] | apparent KD of MS2 coat protein (MS2 coat protein [2]) [nM]
23 | AAGAAACAUGAGGAUCACCCAUGUGAGAAUAACACAGGAUAUGCAAAAGAAAGAAAGAAAGCAGAAGGGUGAAGAA [Mat - Same State 1 - Tesla mod - 53] | 23.3 | 59.1
24 | AAGAAACAUGAGGAUCACCCAUGUGAUAAUAUGGGAGGAUAUACGAAGACGAAAGUCGAAGUAGAAGGCCUAUGAA [Garnet 42] | 40.2 | 57.2
25 | AAGAAAGUUUACGAGGAUAUGUUCCGCAGAACAUGAGGAUCACCCAUGUGAACAAGAAAGGCGACGCAGAAGGCGUGAGCAAAGA [Anvedi] | 35.9 | 105
26 | AAGAAUGUUUACGAGGAUAUGUUCCGCAGAACAUGAGGAUCACCCAUGUGAACAAGAAAGGCGACGCAGAAGGCGUGAGCAAAGA [Laatreve] | 45.7 | 324
27 | AAGACACAUGAGGAUCACCCAUGUCAAGAGAGACGAGGAUAUCUGAAAAAAAAAAAAAAAGGAGAAGGCGUGAAAA [Same State of Confusion] | 33.5 | 69.3
28 | AAGAGACAUGAGGAUCACCCAUGUAGGAUUAUGGGAGGAUAUACAAAGACGAGAGUCAGAGUAGAAGGCCUAGGAG [salish99-ss1-131(!)] | 23.2 | 57.4
29 | AAUAAAAAUAGUUAGGAUAUGAGAAUUAAGACAUGAGGAUCACCCAUGUAAUUAAAACAAGUAAAUCAGAAGGGACAGGGUGAAA [JR_SS002_Sub204] | 99.4 | 46
30 | AAUAAACAUGAGGAUCACCCAUGUUUUAAUAGUUGAGGAUAUACGGGUGAAAAUAGCAUAGUAGAAGGCGAGUGUA [SameState1 Malc#13] | 31.2 | 36.8
31 | AAUAACAAAAGAAAGGAUAUGCGCACAGGAACAUGAGGAUCACCCAUGUGCCGCCAAGGCGGAUAGCAGAAGGUUCACACGCAUA [Default title] | 19.4 | 20.1
32 | AAUAAUUAUAACGAGGAUAUCCGUAAUAAGACAUGAGGAUCACCCAUGUAAUAAGGGUAAAUAAAGGAGAAGGCGUAGGGUGAAA [JR_SS002_Sub002] | 44.3 | 61.1
33 | AAUAAUUAUACGAAGGAUAUCGGUAAUUAGACAUGAGGAUCACCCAUGUAAUAUGGUUAAAUAAUCGAGAAGGUCGAGGGUGAAA [JR_SS002_Sub503] | 55.3 | 42.2
34 | AAUAGGAAGAGAGAGGAUAUCCAAAGGAAAACAUGAGGAUCACCCAUGUAAAAGGUAGGAAAUUGGGAGAAGGCUCAAGAGAGAG [salish99-ss2-073] | 9.55 | 39.9
35 | AAUAUACAUGAGGAUCACCCAUGUUUUAAUAGCUGAGGAUAUACGGGUGAAAAUAGCAUAGUAGAAGGCGGGUGUA [SameState1 Malc#9] | 92.2 | 80
36 | AAUAUACAUGAGGAUCACCCAUGUUUUGGUGUAUGAGGAUAUAAAAAAAAUUAAAUAAAAUUAGAAGGCAUAAAUA [JR_SS001_Sub001] | 49.2 | 48.7
37 | AAUAUAUUAAGUGAGGAUAUCAUAGAAAAAACAUGAGGAUCACCCAUGUGGGAAACCUGGUCGGGUGAGAAGGCACUUAAUAUAU [Samwise Clockwise 29 - Jieux - Same State 2] | 71.4 | 704
38 | AAUAUAUUAAGUGAGGAUAUCGAGGAAAAAACAUGAGGAUCACCCAUGUGGGAAACAUGGUAGGGUGAGAAGGUACUUAAUAUAU [Samwise Clockwise 23 - Jieux - Same State 2] | 218 | 220
39 | AAUGAACAUGAGGAUCACCCAUGUUUUAAUAGUUGAGGAUAUAAGGGUGAAAAUAGCACAUUAGAAGGCGAGUGUA [SameState1 Malc#15] | 39.4 | 38
40 | AAUGAACAUGAGGAUCACCCAUGUUUUAAUAGUUGAGGAUAUAUGGGUGAAAAUAGCACAGUAGAAGGCGAGUGUA [SameState1 Malc#16] | 144 | 133
41 | AGAAAAAAAACGCAGGAUAUCCAAAAGAAAACAUGAGGAUCACCCAUGUAAAAGAAAAUAAAAUGGGAGAAGGGCGAAAAAAAGA [Mat - Same State 2 - Eli mod - D93] | 9.91 | 18.5
42 | AGAAAACAUGAGGAUCACCCAUGUAGAAACAUGGGAGGAUAUACAAAGACGAAAGUCAAAGUAGAAGGCCUAAAGA [Mat - Same State 1 - Mod - D161] | 207 | 152
43 | AGAAAACAUGAGGAUCACCCAUGUAGAAAUAUGGGAGGAUAUACAAAGACGAAAGUCGAAGUAGAAGGCCUAAAGA [Mat - Same State 1 - Meechl mod - D123] | 22 | 58.7
